Data as given in the nanobody polyreactivity screen of Harvey et al. (2022).

Experiment: yeast display, Sf9 membrane polyspecificity reagent, FACS + sequencing; frameworks hold sequencing errors
Outline: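 A nanobody's polyreactivity label depends on the gate it was sorted from. Yeast display cells were stained with 10% biotinylated, detergent-solubilized Sf9 membrane reagent for 1 hour at 4 °C, enriched on streptavidin microbeads and sorted by FACS. The low and high (top ~1%) gates were set on anti-HA fluorescence for expression and streptavidin fluorescence for reagent binding.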

## QVQLVESGGRLVQAGGSLRLSCAASGSIFLKYAMRWYRQAPGKERELVAAISSAGRTYYADSVKGRFTISRDNAKKTVYLQMNSLKPEETAVSYCAARYPYDWRHDYWGQGTQVTVSS
  polyreactivity (PSR sort gate): low polyreactivity

## QFQLVESGGGLVQAGGSLRLSCAASGSIFRGYTMGWYRQAPGKERELVAAISWSGGSTYYADSVKGRFTISRDNAKNTVYLQMNSLKPEDTAVYFCAAGDYYHRIFLWYDYWGQGTQVTVSS
  polyreactivity (PSR sort gate): low polyreactivity

## QVQLVESGGGLVQAGGSLRLSCAASGSTFRRYAMGWYRQAPGKERELVAGISKRGVSTYYADSVKGRFTISRDNAKNTVYLQMNSLKPEDTAVYYCAAEWTVSKYDYWGQGTQVTVSS
  polyreactivity (PSR sort gate): low polyreactivity

## QVQLVESVGGLVQAGGSLRLSCAASGSIFFTYTMGWYRQAPGKERELVAAISSGGITNYADSVKGRFTISRDNAKKTVYFQMNSLKPEDTAVYYCAVDGGEFSSYGYWGQGTQVTVSS
  polyreactivity (PSR sort gate): low polyreactivity

## QVQLVESGGGLVQAGGSLRLSCAASGSTFNFYAMGWYRQAPGKEREFVAAITSSGDSTYYADSVKGRFTISRDNAKNTVYLQLNSLKPEDTAVYYCAARLRWRYSYDYWGQGTQVTVSS
  polyreactivity (PSR sort gate): high polyreactivity

## QGQLVESGGGLVQAGGSLRLSCAASGFTFSPYAMGSYRQAPGKERELVAVISGGGSTYYADSVKGRFTISRDNAKNTVYLQMNSLKPEDTAVYYCAKRFYRSYYWGQGTQVTVSS
  polyreactivity (PSR sort gate): high polyreactivity

## QGQLVESGGCLVQAGGSLRLSCDASGFIFTSYAMGWYRQAPGQEWELVAVITASGGSTYYADSVKGRFTISRDNAKNTVYLQMNSLKPEDTAVYYCNRYYQSYYGWTGPYGYWGQGTQVTVSS
  polyreactivity (PSR sort gate): high polyreactivity

## QVELVVSGGGLVQPGGSLRLSCAASGSTFFNNGMGWYRQSPGKERELVATITKRGGNTYYADSVKGRFTISRDNAKNTVYLQMNSLKPEDTAVYYCAALRYKLPLGYWGQGTQVTVSS
  polyreactivity (PSR sort gate): high polyreactivity

## QVQLVESGGGLVQAGGSLRLSCAASGFTFRGNVMGWYRQAPGKERELVAGISSTGSTYYADSVKGRFTISRDNAKNTVYLQMYSVKPVDTAVYYCAAAAIYFRYDYWGQGTQVTVSS
  polyreactivity (PSR sort gate): high polyreactivity

## QVQLVESGGGLVQAGGSLRLSCAASGFIFYYYAMGWYRQAPGKERELVAAISSSGTSTYYADSVKGRFTISRDNAKYTVYLQMNSLKPEDTAVYYCAAYSSHREDYWGQGTQVTVSS
  polyreactivity (PSR sort gate): high polyreactivity

## QVQLVESGGGLVQAGGSLRLSCAASGSTFAKYAMGWYRQAPGKERELVASIRLSGGSTYYADSVKGRFTISRDNAKNTVYLQMNSLKPEDTAVYYCNKPFPYYPDGPNGYDYWGQGTQVTVSS
  polyreactivity (PSR sort gate): low polyreactivity

## QVQLVESGGGLVQAGGSLRLSCAASGSIFDQYTMGWYRQAPGKARELVAAIRFSGGSTSYADSVKGRFTISRDNAKNTVYLQMISLKPEDTAVYYCNVDAITGGDWEDFDYWGQGTQVTVSS
  polyreactivity (PSR sort gate): low polyreactivity

## QVQLVESGGGLVQAGGSLRLSCAASGRIFRYYAMGCYRQAPGKERELVAAITRGGSTNYADSVKGRFTISRDNAKNTVYLQMNSLKPEDTAVYYCAAAYRGRYKYYYWGQGSQVTVSS
  polyreactivity (PSR sort gate): high polyreactivity

## QVQLVESGGGLVQAGGSLRLSCAASGSIFTFYAMGWYRQAPGKERELVASITSGAGITYYADSVKGRFTISRDNAKNTVYLQMNSLKPEDTAVYYCAADWSGDFFTDGYWGQGTQVTVSS
  polyreactivity (PSR sort gate): low polyreactivity

## QVQLVESGGGLVQAGGSLRLSCAASGRTFVYNAMGWYRQAPGKERELVATITSSGNTYYADSVKGRFTISRDNAKNTVYLQMNSLKPEDTAVYYCNRRYWTSGYWGQGTQVTVSS
  polyreactivity (PSR sort gate): high polyreactivity

## QVQLVESGGGLVQAGGSLRLSCAASGGIFWYNAMGWYRQAPGKERELVADISSSGITYYADSVKGRFTISRDNAKNTVYLQMKSLKPEDTAVYYCAADSTTRPGLRVYDDYDYWGQGTQVTVSS
  polyreactivity (PSR sort gate): low polyreactivity

## QVQLVESGGGLVQAGGSLRLSCAASGRTFHDNGMGGYRQAPGKERELVAAISWRGGSTNYADSVKGRFTISRDNAKNTVYLQMNSLKPEETAVYFCNRVPRKFGKLDYWGQGTQVTVSS
  polyreactivity (PSR sort gate): low polyreactivity

## QDQLVESGGGLVQAGGSLRLSCAASGRILRRNVMGWYRQAPGKESELVATITNSGGRTYYADSVKGRFTISRDNEKNTVYLLMNSLQPEDTAVYYCAKYGYGYTGYGYWGQGTQVTVSS
  polyreactivity (PSR sort gate): high polyreactivity

## QVQLVESGGGLVQAGASLRLSCAASGSTFGYYAMGWNRQAPGKERELVAAISTRGGSTYYADSVKGRFTISRDNAKTTVYLQMNSLKPEDIAVYYCAVLGTPYGLNDYCGQGTQVTVSS
  polyreactivity (PSR sort gate): high polyreactivity

## QVQLQESGGGLVQAGGSLRLSCAASGYISLAQTIGWFRQAPGKEREFVASIALGSSTYYTDSVKGSFTISRDNAKTTVYLQMNSLKPDDTAVYYCAARVGASYAHDYWGQGTQVTVSS
  polyreactivity (PSR sort gate): low polyreactivity

## QVQLVESGGGLVQAGGSLRLSCPASGSTFRHYVMGRYRQAPGKERELVAAINWTSGSTNYADSVKGRFTISRDNAKNTVYFQMNSLKPEDTAVYYCAARGPVGYGWRYRPWHDYWGQGTQVTVSS
  polyreactivity (PSR sort gate): high polyreactivity

## QVQLVESGGGLVQAGGSLRLSCAASGRIFKPYVMGWYRQAPGKERELVAAITRGGSTNYADSVKGRFTISRDNAKNTVYLQMNSLKPEDTAVYDCAVYYYGTWGWDDYWGQGTQVTVSS
  polyreactivity (PSR sort gate): high polyreactivity

## QVQLVESGGGLVQAGGSLRLSCAASGSTFGNNAMGLYRQAPGKERELVASINWNGGSTYYADSVKGRFTISRDNAKITVYLQMNSLKPEDTAVYYCNARLYFVEGQDYYYWGQGTQVTVSS
  polyreactivity (PSR sort gate): low polyreactivity

## QVQLVESGGGLVQAGGSLRLRCAASGRTFWKNAMGWYRQEPRKECELVAAISWGGGSTYYADSVKGRFTISRDNAKNTVYLQMNSLKPEDTAVYYCNVYYRRVLLGFYYWGQGTQVTVSS
  polyreactivity (PSR sort gate): low polyreactivity

## QVQLVESGGGLVQAGGSLRLSCAASGRTFSRNAMGWYRQAPGKERELVAAISRSGGSTYYADSVKGRFTISRDNAKNTVYFQLNSLKPEDTAVYYCKADVYSTYYNYNYWGQGTQVTVSS
  polyreactivity (PSR sort gate): high polyreactivity

## QVQLEESGGGLVQAGGSLRLICAASGCIFEYNAMGWSRQAPRKEREFVAAINNSGGRTYYADSVKGRFTISRDNANNTVYLQMNSLKPEDTAVYYCAVYSYYRRTYRREMDYWGQGTQVTVSS
  polyreactivity (PSR sort gate): high polyreactivity

## QVQLVESGGGLVQAGGSLRLSCAASGLTFFPNAMGWYRQAPGKERELVAAISNNGGRTYYADSVKGRFTISRDNAKNTVYLQMNSLKPEDTAVYYCAKYLSPGERHSYDYWGQGTQVTVSS
  polyreactivity (PSR sort gate): high polyreactivity

## QVQLVESGGGLVQAGGSLRLSCAASGFTFTRYAMGWYRQAPGKERELVAVITYSGDTSYADSVKGRFTISRDNAKNTVYLQMNSLKPEDTAVYYCAVERAYYSDTGRYGYDYWGQGTQVTVSS
  polyreactivity (PSR sort gate): high polyreactivity

## QVQHVESGGGLVQAGGSLRLSCAASGRIFHWYAMGWYRQAPGKERELVAAIRWTGGSTYYADSVKGRFTISRDNAKNTVYLEMNSLKPEDTAVYYCAAKGYTGIFYEMDYWGQGTQVTVSS
  polyreactivity (PSR sort gate): low polyreactivity

## QVQLVESGGGLVQAGGSLRLSCAASGSTIPSYAMGWYRQAPGKERELVASITYSDGTTRYAYSVKGRFTISRDNAKNTVYLQMNSLKPEDTAVYYCNAVYYREGMDYWGQGTQVTVSS
  polyreactivity (PSR sort gate): low polyreactivity

## QVLLQESGGGLVQAGVSLRLSCAASGNIFSAGGMGWYRQAPVNERELVAGIGTGTSTNYADSVKGRFTISRDNAKNTVYLQMNSLKPEDTAVYYCAAAYYSGLSHWYWGQGTQVTVSS
  polyreactivity (PSR sort gate): low polyreactivity

## QVQLVESGGGLVQAGGSLRLSCAASGFTFDYYAMGWYRQAPGKERELVAAISRAGSTNYADSVKGRFTISRDNAKNTVYLQMNSLKPEDTAVYYCNKGYHSWSRLSQFGWSYDYWGQGTQVTVSS
  polyreactivity (PSR sort gate): high polyreactivity

## QVQLVESGGGLVQAGGSLRLSCAASGFIFRIYAMGWYRQAPGKERELVAAITWDGVSTYYADSVKGRFTISRDNAKNTVYLQMNSLKPEDTAVFYCAARKRSYPYYYWGQGTQVNVSS
  polyreactivity (PSR sort gate): high polyreactivity

## QVQLVESGGGLFQAGGSLRLSCAASGRIFSCYAMGWYRQAPGKERELVAAITVRGSTYYADSVKGSFTISRDNAKNTVYLQMNSLKPEDTAVYYCAAGGYPGTTYYGYDFWGQVTQVTVSS
  polyreactivity (PSR sort gate): low polyreactivity

## QVQLVESGGGLVQAGGSLRLSCAASGSTFTNNGMGWYRQAPGKERELVATISWDGDSTYYADSVKGRFTISRDNAKNTVYLQMISQKPEDTAVYYCAADEWGSDSALNFEYWGQGTQVTVSS
  polyreactivity (PSR sort gate): low polyreactivity

## QDQLVESGGGLVQAGGSLRLSCAASGSTFTRNSMGRYRQAPWKERELVAVISSRGGRTYYADSVKGRFTISRDNAKNSVYLPMNSLKPDDTAVYYCAARYVIPLGNTYDYWGQGTQVNVSS
  polyreactivity (PSR sort gate): high polyreactivity

## QVQLVESGGGLVQAGGSLRLSCAASGSIYYGYAMGWYRQAPGKERELVAAISSSGGSTYYADSVKGRFTISRDNAKNTVYLQMNSLKPEDTAVYYCAATRRKAYLYPSDYWGQGTQVTVSS
  polyreactivity (PSR sort gate): high polyreactivity

## QVQLVESGGGLVQAGGSLRLSCAASGRTFSYYAMGWSRQAPGKERELVAAMSWNGGSTYYADSVKGRFTISRDNAKNTVYFQMNSLKPEDTAVYYGAAAFYYYGDYDYWGQGTQVTVSS
  polyreactivity (PSR sort gate): low polyreactivity

## QVQLVESGGGLVQAGGSLRLSCAASGRTYAAYAMGWYRQAPGKERELVAAISIGGSTNYADSVKGRFTISRDNAKNTVYLLMNSLKPEDTAVYYCAAGTWAVSKYLEWLEFYYWGKGTQVTVSS
  polyreactivity (PSR sort gate): high polyreactivity

## QVQLVESGGGLVQAGGRLRFTCAASGAIFHNYDMGGYRQATGKERQLVADISRGGDTNYADSVKGRFTISRDNAKNTVYLEMNSMKPEDTAVYYCNATYWILDSPWWRETFDYWGQGSQVTVSS
  polyreactivity (PSR sort gate): low polyreactivity

## QVQLVESGGGLVQAGGSLRLSCAASGSTFGWYAMGWYRQAPGKERELVATISSGGSTYYADSVKGRFTISRDNAKNTVYLQMNCLKPEDTAVYYCAADYLTPWVYWFSYGLDYWGQGTQVTVSS
  polyreactivity (PSR sort gate): low polyreactivity

## QVQLVESGGGLVQAGGSLRLSCAASGFLFYYYAMGWYRQAPGKEREFVAAIRWNGGSTYYADSVKGRFTISRDNAKNTVYLQMNSLKPEDTAVYYCAAVWVQTTYADLYKYYYWGQGTQVTVSS
  polyreactivity (PSR sort gate): low polyreactivity

## QVQLVESGGGLVQAGGSLRLSCAASGLIFVSYAMGWYRPAPGKERELVAAINSRGSRTYYADSVKGRFTISRDNAKNTVYLQMNSLKPEDTAVYYCAAGVIRYGGKEEYYYWGQGTQVTVSS
  polyreactivity (PSR sort gate): high polyreactivity
